# B1: TPR t1 (parent)
# chain: GACCAAUCUGCCCUCAGAGCUCGAGAACAUCUUCGGAUGCAGAGGAGGCAGGCUUCGGUGGCGCGAUAGCGCCAACGUCCUCAACCUCCAAUGCAUCCCACCACAUGAUGAUGCCUGAAGAGCCUUGGUUUUUUG
# Variants of: B1
# Assay: polymerase ribozyme fitness, log enrichment relative to wild type (log ratio); higher = more active; in vitro selection for triplet polymerase activity
# Summary of the method: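 In triplicate, a single round of in vitro selection was run on each mutant library, PCR-built and transcribed, covering one subunit of a heterodimeric triplet polymerase ribozyme. Frozen incubation at −7 °C followed annealing with a biotinylated primer, partner subunit and triplets, and extended constructs were then gel-excised, streptavidin-captured and taken through RT-PCR. Fitness is the logarithm of genotype enrichment over wild-type enrichment, from inverse-variance-weighted replicate averages of Illumina-sequenced inputs and outputs. […] only genotypes with ≥10 input reads and ≥1 read per output were kept.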
row,Variant,polymerase ribozyme fitness (log ratio)
1,GACCAAUCUGCCCUCAGAGCUCGAGAACAUCUUCGGAUGCAGAGGAGGCAGGCUUCGGUGGCGCGAUAGCGUCAACGUCCUCAACCUCCAAUGGAUCCCACCGCAUGAUGAUUCCUGAAGAGCCUAGGUUUUUUG [C72U C94G A103G G113U U126A],-5.45
2,GACCAAUCUGCCCUCAGAGCUCGAGAACAUCUUCGGAUGCAGAGGAGGCAGGCUUCGGUGGCGCGAUAGCGUCAACGUCCUCAACUUCCAAUGCAUCCCACCACAUUAUGAUUCCUGAAGAGCCUUGGUUUUUUG [C72U C86U G107U G113U],-6.11
3,GACCAAUCUGCCCUCAGAGCUCGAGAACAUCUUCGGAUGCAGAGGAGGCAGGCUUCGGUGGCGCGAUAGCGUCAACGUCCUCAACCUACAAUGCAUCCCAACACAUGAUGAUGCCUGAAGAGCCUUGGUUUUUUG [C72U C88A C101A],-1.43
4,GACCAAUCUGCCCUCAGAGCUCGAGAACAUCUUCGGAUGCAGAGGAGGCAGGCUUCGGUGGCGCGAUAGCGUCAACGUCCUCAACCUCCAAUGCAUCCUACCACAUGAUGAUGCCUGAUGAGCCUUGGUUUUUUG [C72U C99U A119U],-3.8
5,GACCAAUCUGCCCUCAGAGCUCGAGAACAUCUUCGGAUGCAGAGGAGGCAGGCUUCGGUGGCGCGAUAGCGUCAACGUCCUGAACCUCCAAUGCAUCCCACCACAUGAUUAUGCCUGAAGAGCCUUGGUUUUUUG [C72U C82G G110U],-2.93
6,GACCAAUCUGCCCUCAGAGCUCGAGAACAUCUUCGGAUGCAGAGGAGGCAGGCUUCGGUGGCGCGAUAGCGUCAACGUCCUCAACGUCCAAUGCAUCCCACCACAUGAUGAUGCCUGAAGAGCCUGGGUUUUUUG [C72U C86G U126G],-3.16
7,GACCAAUCUGCCCUCAGAGCUCGAGAACAUCUUCGGAUGCAGAGGAGGCAGGCUUCGGUGGCGCGAUAGCGUCAACGUCCUCAACCUCCAAUGCAUUCCACCACACGGUGAUGCCUGAAGAGCCUUGGUUUUUUG [C72U C97U U106C A108G],-6.08
8,GACCAAUCUGCCCUCAGAGCUCGAGAACAUCUUCGGAUGCAGAGGAGGCAGGCUUCGGUGGCGCGAUAGCGUUAACGUCCUCAACCUUCAAUGCAUCCCACCACAUGAUGAUUCCUGAAGAGCCAUGGUUUUUUG [C72U C73U C88U G113U U125A],-5.18
9,GACCAAUCUGCCCUCAGAGCUCGAGAACAUCUUCGGAUGCAGAGGAGGCAGGCUUCGGUGGCGCGAUAGCGUCAACGUCCUCAACGUCCAAUGCAUCCCACCACAUGAUGAUGCCUGAAGAGCCUUGGUUUUUUG [C72U C86G],-0.742
10,GACCAAUCUGCCCUCAGAGCUCGAGAACAUCUUCGGAUGCAGAGGAGGCAGGCUUCGGUGGCGCGAUAGCGUCAACGUCCUCAACCUCCAAUGAAUCCCACCACAUGAUGAUGCCUGAAGAGCCUUGGUUUUUUG [C72U C94A],-1.26
11,GACCAAUCUGCCCUCAGAGCUCGAGAACAUCUUCGGAUGCAGAGGAGGCAGGCUUCGGUGGCGCGAUAGCGUCAACGUCCUCAAUCUCCAAUGCAUCCCACCACAUGAUGAUGCCUGAAGAGCCUUGGUUUUUUG [C72U C85U],-1.48
12,GACCAAUCUGCCCUCAGAGCUCGAGAACAUCUUCGGAUGCAGAGGAGGCAGGCUUCGGUGGCGCGAUAGCGUCAACGUCCUCAACAUCCGAUGCAUCCCACCACAUGAUAAUGCCUGAAGAGCCUUGGUUUUUUG [C72U C86A A90G G110A],-1.38
13,GACCAAUCUGCCCUCAGAGCUCGAGAACAUCUUCGGAUGCAGAGGAGGCAGGCUUCGGUGGCGCGAUAGCGUCAACGUCCUCAACCUCCAAUGCAUCUCACCACAUGAUGAUGCCAGAAGAGCCUUGGUUUUUUG [C72U C98U U116A],-4.95
14,GACCAAUCUGCCCUCAGAGCUCGAGAACAUCUUCGGAUGCAGAGGAGGCAGGCUUCGGUGGCGCGAUAGCGUCAACGUCCUCAACUUCCAAUGCAUCCCACCACAUGAUGAUGCCUGAAGAGCCUGGGUUUUUUG [C72U C86U U126G],-2.65
15,GACCAAUCUGCCCUCAGAGCUCGAGAACAUCUUCGGAUGCAGAGGAGGCAGGCUUCGGUGGCGCGAUAGCGUCAACGUCCUUAACCUCCAAUGCAUCUCACCACAUGAUGAUGCCUGAGGAGCCUUGGUUUUUUG [C72U C82U C98U A119G],-0.0419
16,GACCAAUCUGCCCUCAGAGCUCGAGAACAUCUUCGGAUGCAGAGGAGGCAGGCUUCGGUGGCGCGAUAGCGUCAACGUCCUCAACCUCCAAUGCAUCCCAGCACAUGAUGAUGCCUGAAGAGCCUUGGUUUUUUG [C72U C101G],-2.18
17,GACCAAUCUGCCCUCAGAGCUCGAGAACAUCUUCGGAUGCAGAGGAGGCAGGCUUCGGUGGCGCGAUAGCGUCAACGUCCUAAACCUCCAAUGCAUCCCACCACAUGAUGAUGCAUGAAGAGCCUUGGUUUUUUG [C72U C82A C115A],-1.79
18,GACCAAUCUGCCCUCAGAGCUCGAGAACAUCUUCGGAUGCAGAGGAGGCAGGCUUCGGUGGCGCGAUAGCGUCAACGUCCUCAACAUCCAAUGCAUCCCACCCCAUGAUGAUGCCUGAAGAGCCUUGGUUUUUUG [C72U C86A A103C],-5.58
19,GACCAAUCUGCCCUCAGAGCUCGAGAACAUCUUCGGAUGCAGAGGAGGCAGGCUUCGGUGGCGCGAUAGCGUCAACGUCCUCAACCUCCAAUGCAUCUCACCACAUGAUGAUGCCUGAAGAGCCUUGGUUUUUUG [C72U C98U],-1.53
20,GACCAAUCUGCCCUCAGAGCUCGAGAACAUCUUCGGAUGCAGAGGAGGCAGGCUUCGGUGGCGCGAUAGCGUCAACGUACUCGACCUCCAAUGCAUCCCACCACAUGAUGAUGCGUGAAGAGACUUGGUUGUUUG [C72U C79A A83G C115G C123A U131G],-4.99
21,GACCAAUCUGCCCUCAGAGCUCGAGAACAUCUUCGGAUGCAGAGGAGGCAGGCUUCGGUGGCGCGAUAGCGUCAACGUCCUCAACCUCCAAUGCAUCCUACCACAUGAUGAUGCCUGAAGAGCCUUGGUUUUUUG [C72U C99U],-3.71

# — the RNAGym collection of RNA variant scans (doi:10.1073/pnas.2313332121)
